{"source": "paper PMC5501851", "about": "“A tyrosine aminotransferase involved in rosmarinic acid biosynthesis in Prunella vulgaris L” (Scientific Reports, 2017)", "key": {"[1]": {"molecular_target": "T1, PvTAT (tyrosine aminotransferase of Prunella vulgaris) (Prunella vulgaris, UniProt A0A0U1ZFM1)", "T1 construct": "gene tat; E. coli Rosetta (DE3); cloning primers translate to N-terminus MELQSSAQ and C-terminus FCERHSY", "assay": "phenylpyruvate absorbance at […] nm, nonlinear Michaelis-Menten fit", "format": "biochemical", "conditions": "10 mM α-ketoglutarate; 0.1 mM PLP, 0.75 mM EDTA, 125 mM potassium phosphate pH 8.0, 30 °C"}, "[2]": {"substrate": "CC(=O)C(=O)O", "assay": "purified protein", "format": "biochemical, Prunella vulgaris", "conditions": "5.5 mM L-Tyr as amino donor, 0.1 mM PLP, 0.75 mM EDTA, 125 mM potassium phosphate pH 8.0, 30 °C"}, "[3]": {"substrate": "N[C@@H](Cc1c[nH]c2ccccc12)C(=O)O", "assay": "purified protein", "format": "biochemical, Prunella vulgaris", "conditions": "10 mM α-ketoglutarate, 0.1 mM PLP, 0.75 mM EDTA, 125 mM potassium phosphate pH 8.0, 30 °C"}, "[4]": {"substrate": "N[C@@H](Cc1ccc(O)cc1)C(=O)O", "assay": "purified protein", "format": "biochemical, Prunella vulgaris", "conditions": "10 mM α-ketoglutarate, 0.1 mM PLP, 0.75 mM EDTA, 125 mM potassium phosphate pH 8.0, 30 °C"}, "[5]": {"substrate": "O=C(O)C(=O)Cc1ccc(O)cc1", "assay": "purified protein", "format": "biochemical, Prunella vulgaris", "conditions": "10 mM L-Glu as amino donor, 0.3 mM NAD, 0.3 mM CoA, 0.75 mM EDTA, 125 mM potassium phosphate pH 8.0, 30 °C"}, "[6]": {"substrate": "O=C(O)C(=O)Cc1ccccc1", "assay": "purified protein", "format": "biochemical, Prunella vulgaris", "conditions": "5.5 mM L-Tyr as amino donor, 0.1 mM PLP, 0.75 mM EDTA, 125 mM potassium phosphate pH 8.0, 30 °C"}, "[7]": {"substrate": "O=C(O)CC(=O)C(=O)O", "assay": "purified protein", "format": "biochemical, Prunella vulgaris", "conditions": "5.5 mM L-Tyr as amino donor, 0.1 mM PLP, 0.75 mM EDTA, 125 mM potassium phosphate pH 8.0, 30 °C"}, "[8]": {"substrate": "O=C(O)CCC(=O)C(=O)O", "assay": "purified protein", "format": "biochemical, Prunella vulgaris", "conditions": "5.5 mM L-Tyr as amino donor, 0.1 mM PLP, 0.75 mM EDTA, 125 mM potassium phosphate pH 8.0, 30 °C"}}, "data": [{"molecule": "N[C@@H](Cc1ccccc1)C(=O)O", "note": "[L-Phe]", "values": [{"measurement": "Km", "setting": "[1]", "value": "10.2 ± 0.05", "unit": "mM"}]}, {"molecule": "PvTAT (tyrosine aminotransferase of Prunella vulgaris) (Prunella vulgaris) (protein, E. coli Rosetta (DE3); cloning primers translate to N-terminus MELQSSAQ and C-terminus FCERHSY) MELQSSAQELDAPTTITIKGILGLLVSSTDAKETGKRVISLGIGDPTAYSCFHVSNAAQEAVVEALRSQKFNGYAPTAGLPQAREAIAEYLSRDLPYKLPADSVYVTAGCTQAIEIALSVLARPGCNILLPRPCFPIYGLCASFRNIEVRYFDLHPEKGWEVDLDAVQDLADHNTVAMVIINPGNPCGNVYSHQHLRKVAEMAKRLGIVVIADEVYGQLAFGANPFVPMGIFGSIAPVVTLGSLSKRWLIPGWRLGWLVINDPDGSLMSPKFVERIKKYCDINGGPATFIQAAVPEIIEQTQEVFFRKTINILKQTSDICYQKVEDINGISCPTKPKGAMAFMVKLNISQMKDISDDIDFCFKLAKEESVIILPGIAVGLKNWIRITFAVEPSALEEAMERLKSFCERHSY", "values": [{"measurement": "Km", "setting": "[2]", "value": "52.06 ± 1.38", "unit": "mM"}, {"measurement": "Vmax", "setting": "[2]", "value": 1.3, "unit": "µmol/min/mg"}, {"measurement": "kcat", "setting": "[2]", "value": "0.89 ± 0.01", "unit": "s⁻¹"}, {"measurement": "kcat/Km", "setting": "[2]", "value": "20 ± 3", "unit": "M⁻¹ s⁻¹"}, {"measurement": "Km", "setting": "[3]", "value": "8.14 ± 1.04", "unit": "mM"}, {"measurement": "Vmax", "setting": "[3]", "value": 1.53, "unit": "µmol/min/mg"}, {"measurement": "kcat", "setting": "[3]", "value": "1.05 ± 0.08", "unit": "s⁻¹"}, {"measurement": "kcat/Km", "setting": "[3]", "value": "130 ± 8", "unit": "M⁻¹ s⁻¹"}, {"measurement": "Km", "setting": "[4]", "value": "0.40 ± 0.05", "unit": "mM"}, {"measurement": "Vmax", "setting": "[4]", "value": 1.74, "unit": "µmol/min/mg"}, {"measurement": "kcat", "setting": "[4]", "value": "1.19 ± 0.009", "unit": "s⁻¹"}, {"measurement": "kcat/Km", "setting": "[4]", "value": "3030 ± 350", "unit": "M⁻¹ s⁻¹"}, {"measurement": "Km", "setting": "[5]", "value": "0.48 ± 0.004", "unit": "mM"}, {"measurement": "Vmax", "setting": "[5]", "value": 0.18, "unit": "µmol/min/mg"}, {"measurement": "kcat", "setting": "[5]", "value": "0.121 ± 0.01", "unit": "s⁻¹"}, {"measurement": "kcat/Km", "setting": "[5]", "value": "295 ± 35", "unit": "M⁻¹ s⁻¹"}, {"measurement": "Km", "setting": "[6]", "value": "3.90 ± 0.067", "unit": "mM"}, {"measurement": "Vmax", "setting": "[6]", "value": 0.43, "unit": "µmol/min/mg"}, {"measurement": "kcat", "setting": "[6]", "value": "0.3 ± 0.01", "unit": "s⁻¹"}, {"measurement": "kcat/Km", "setting": "[6]", "value": "76 ± 1", "unit": "M⁻¹ s⁻¹"}, {"measurement": "Km", "setting": "[7]", "value": "4.72 ± 0.05", "unit": "mM"}, {"measurement": "Vmax", "setting": "[7]", "value": 1.06, "unit": "µmol/min/mg"}, {"measurement": "kcat", "setting": "[7]", "value": "0.73 ± 0.01", "unit": "s⁻¹"}, {"measurement": "kcat/Km", "setting": "[7]", "value": "150 ± 5", "unit": "M⁻¹ s⁻¹"}, {"measurement": "Km", "setting": "[8]", "value": "10.80 ± 0.19", "unit": "mM"}, {"measurement": "Vmax", "setting": "[8]", "value": 0.92, "unit": "µmol/min/mg"}, {"measurement": "kcat", "setting": "[8]", "value": "0.63 ± 0.002", "unit": "s⁻¹"}, {"measurement": "kcat/Km", "setting": "[8]", "value": "60 ± 8", "unit": "M⁻¹ s⁻¹"}]}]}
